Data: patent US20100168443A1, “Ethoid-Containing Compounds, Methods for Preparing Ethoid-Containing Compounds, and Methods of Use” (UNIVERSITY OF VIRGINIA PATENT FOUNDATION, priority 2006, published 2010)
Blank lines part the entries; values can stand above or below the molecule they belong to. Where a SMILES comes first, the peptide text is derived from it. Where no end group is shown, it is not given here. [ ]: non-standard residue; d: D form. NMeF = CN[C@@H](Cc1ccccc1)C(=O)O; Nle = CCCC[C@H](N)C(=O)O

Key:
[1] = target: T1, Tachykinin NK2 HUMAN receptor (Homo sapiens, UniProt P21452); settings: radioligand; Human recombinant (CHO cells); cited from earlier work
T1 construct: host or cells: CHO
T1 sequence (P21452 1-398): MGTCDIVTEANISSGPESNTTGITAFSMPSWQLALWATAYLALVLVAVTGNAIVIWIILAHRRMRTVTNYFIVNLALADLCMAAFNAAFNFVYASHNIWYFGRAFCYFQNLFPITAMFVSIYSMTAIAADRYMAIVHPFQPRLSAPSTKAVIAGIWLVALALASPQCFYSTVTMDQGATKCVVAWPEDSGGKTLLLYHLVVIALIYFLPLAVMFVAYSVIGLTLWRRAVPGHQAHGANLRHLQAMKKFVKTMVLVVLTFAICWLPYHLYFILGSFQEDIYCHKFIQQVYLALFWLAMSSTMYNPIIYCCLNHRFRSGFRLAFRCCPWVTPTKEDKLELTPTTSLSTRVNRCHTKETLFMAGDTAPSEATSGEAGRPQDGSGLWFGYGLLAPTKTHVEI

[2] = target: T2, DPP-4 peptidase (Homo sapiens, UniProt P27487); experiment: DPP4 enzyme stability assay; format: in vitro ADME; settings: 1 mU DPP-4, tris buffer pH 7.5, 37° C, up to 8 hours incubation
T2 construct: purchased Sigma-Aldrich

[3] = target: human GnRH recombinant receptor (AequoScreen cell line, FAST-0160A) (human) (UniProt P30968); experiment: cell-based or functional assay
[4] = target: T3, Tachykinin NK3 human receptor (human recombinant, CHO cells) (human, UniProt P29371 1-465); experiment: radioligand binding, human recombinant NK3 in CHO cells (MDS Pharma assay #255710; printed as assay parameter)
T3 construct: whole, on cells
T3 sequence (looked up): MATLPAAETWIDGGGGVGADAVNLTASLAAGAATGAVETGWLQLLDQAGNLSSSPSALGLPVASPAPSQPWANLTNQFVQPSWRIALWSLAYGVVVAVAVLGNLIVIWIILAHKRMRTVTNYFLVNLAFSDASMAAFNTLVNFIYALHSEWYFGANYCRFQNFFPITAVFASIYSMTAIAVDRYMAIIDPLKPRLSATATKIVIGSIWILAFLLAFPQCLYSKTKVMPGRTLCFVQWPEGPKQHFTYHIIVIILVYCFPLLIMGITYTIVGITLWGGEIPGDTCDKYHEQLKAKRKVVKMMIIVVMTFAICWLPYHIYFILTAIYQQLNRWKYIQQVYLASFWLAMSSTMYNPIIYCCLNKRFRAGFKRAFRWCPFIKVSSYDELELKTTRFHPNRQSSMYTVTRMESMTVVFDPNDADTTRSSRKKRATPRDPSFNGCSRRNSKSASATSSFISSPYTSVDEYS

Chain of human GnRH recombinant receptor (AequoScreen cell line, FAST-0160A) (human) (P30968 whole entry): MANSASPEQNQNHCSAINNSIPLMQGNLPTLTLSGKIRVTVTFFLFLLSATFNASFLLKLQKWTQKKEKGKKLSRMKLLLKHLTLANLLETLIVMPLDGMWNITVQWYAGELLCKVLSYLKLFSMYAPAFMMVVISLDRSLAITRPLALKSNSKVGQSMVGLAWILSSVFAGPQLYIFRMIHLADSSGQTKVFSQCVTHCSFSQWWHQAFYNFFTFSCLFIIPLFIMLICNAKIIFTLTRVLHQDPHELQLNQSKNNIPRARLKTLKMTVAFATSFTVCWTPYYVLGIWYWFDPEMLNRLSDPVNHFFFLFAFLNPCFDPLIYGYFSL
T2 sequence (P27487 whole entry): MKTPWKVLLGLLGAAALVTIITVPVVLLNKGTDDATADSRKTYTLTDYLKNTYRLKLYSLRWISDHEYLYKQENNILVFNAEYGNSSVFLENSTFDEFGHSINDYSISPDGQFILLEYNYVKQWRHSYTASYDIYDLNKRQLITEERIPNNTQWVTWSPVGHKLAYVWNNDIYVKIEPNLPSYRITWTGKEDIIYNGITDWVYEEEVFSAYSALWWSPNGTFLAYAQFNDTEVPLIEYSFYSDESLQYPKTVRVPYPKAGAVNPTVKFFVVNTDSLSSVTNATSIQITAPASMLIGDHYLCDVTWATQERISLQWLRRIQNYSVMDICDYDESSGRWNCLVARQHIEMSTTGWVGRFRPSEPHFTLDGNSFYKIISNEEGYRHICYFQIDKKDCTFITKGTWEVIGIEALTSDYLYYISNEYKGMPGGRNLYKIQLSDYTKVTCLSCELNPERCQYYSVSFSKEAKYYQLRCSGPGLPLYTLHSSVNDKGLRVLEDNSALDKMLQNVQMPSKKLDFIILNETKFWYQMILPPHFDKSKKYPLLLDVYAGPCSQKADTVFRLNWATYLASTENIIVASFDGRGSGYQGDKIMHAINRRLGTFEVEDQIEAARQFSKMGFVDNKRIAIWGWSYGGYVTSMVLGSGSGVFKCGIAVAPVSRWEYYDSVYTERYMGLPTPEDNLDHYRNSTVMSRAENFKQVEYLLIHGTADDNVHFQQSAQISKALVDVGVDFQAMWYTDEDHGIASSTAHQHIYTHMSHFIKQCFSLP

Molecule: CC(=O)NC1(c2ccccc2)CCN(CC[C@H](CN(C)C(=O)c2ccccc2)c2ccc(Cl)c(Cl)c2)CC1 [[3H] SR-48968]
- Kd [1]: 0.25 nM

Molecule: DMHDFF[NMeF]GLM-NH2 (ends and bridges not checked; also: 125I label, position not given here) [[125I] MePhe7-Neurokinin B]
- Kd [4]: 0.28 nM

Second part, the molecule after the results:

- DPP-4 peptidase resistance (degradation by HPLC-MS) [2]: substantially cleaved
Molecule: CCCC[C@H](NC(=O)[C@@H](NC(=O)[C@H](CC(=O)O)NC(=O)[C@H](CCC(N)=O)NC(=O)[C@H](CC(C)C)NC(=O)[C@H](CC(C)C)NC(=O)[C@H](CCCCN)NC(=O)[C@H](CCCNC(=N)N)NC(=O)[C@H](C)NC(=O)[C@H](CO)NC(=O)[C@H](CC(C)C)NC(=O)[C@H](CCC(N)=O)NC(=O)CNC(=O)[C@H](CC(C)C)NC(=O)[C@@H](NC(=O)[C@H](CCCCN)NC(=O)[C@H](CCCNC(=N)N)NC(=O)[C@H](Cc1ccc(O)cc1)NC(=O)[C@H](C)NC(=O)[C@H](C)NC(=O)[C@@H](NC(=O)[C@H](Cc1ccccc1)NC(=O)[C@@H](NC(=O)[C@H](C)NC(=O)[C@H](CC(=O)O)NC(=O)[C@H](C)NC(=O)[C@@H](N)Cc1ccc(O)cc1)[C@@H](C)CC)[C@@H](C)O)C(C)C)[C@@H](C)CC)C(=O)N[C@@H](CO)C(=O)N[C@@H](CCCNC(=N)N)C(N)=O [peptide control] (H-YADAIFTAAYRKVLGQLSARKLLQDI[Nle]SR-NH2)

- EC50, aequorin luminescence agonist assay (AequoScreen cells) [3]: 0.14 nM
- EC50, historical value of the same assay [3]: 0.38 nM
Molecule: [D-Trp6] LHRH (Bachem, H4075) (peptide)
